The target of this experiment is TGFβ in media conditioned by B16F10 melanoma cells (murine (produced by murine B16F10 cells)). Briefly: cell-based or functional assay.

Substance “TSR2 recombinant protein (second type 1 repeat of human TSP-1 without the DKRFK sequence, amino acids 416-473)” came in with a level of active TGFβ as percent of total TGFβ (MLEC PAI-1 promoter luciferase assay) (% of total TGFβ) of 4.8.

In the case of “TSR2+RFK recombinant protein (second type 1 repeat of human TSP-1 with the RFK sequence, amino acids 411-473)”, the level of active TGFβ as percent of total TGFβ (MLEC PAI-1 promoter luciferase assay) (% of total TGFβ) came to 30.

The values are drawn from US20040110131A1.
